Test results from patent US20090004675A1, “Method of Identifying Compounds for Bacterial Growth Modulation” (priority 2004, published 2009).

Legend:
[1] = biological target: Escherichia coli β clamp (beta subunit of DNA polymerase III holoenzyme) (UniProt P0A988); experiment: fluorescence anisotropy; labeled peptide
[2] = biological target: Escherichia coli β clamp (beta subunit of DNA polymerase III holoenzyme) (UniProt P0A988); experiment: fluorescence (fluorophore-labeled β titrated with peptide); ±0.9; labeled β
[3] = biological target: Escherichia coli β clamp (beta subunit of DNA polymerase III holoenzyme) (UniProt P0A988); experiment: fluorescence (fluorophore-labeled β titrated with peptide); ±0.6; labeled β

Sequence of Escherichia coli β clamp (beta subunit of DNA polymerase III holoenzyme) (P0A988 whole entry): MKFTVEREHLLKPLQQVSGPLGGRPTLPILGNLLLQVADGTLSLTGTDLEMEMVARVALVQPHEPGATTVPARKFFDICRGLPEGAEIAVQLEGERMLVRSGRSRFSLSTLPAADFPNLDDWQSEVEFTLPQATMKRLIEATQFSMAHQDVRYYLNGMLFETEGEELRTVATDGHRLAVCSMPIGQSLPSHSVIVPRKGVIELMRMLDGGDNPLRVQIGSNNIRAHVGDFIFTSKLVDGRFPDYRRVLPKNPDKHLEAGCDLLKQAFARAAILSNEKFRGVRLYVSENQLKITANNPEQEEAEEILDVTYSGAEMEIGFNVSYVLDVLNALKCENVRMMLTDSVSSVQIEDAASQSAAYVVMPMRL
Sequence of Peptide corresponding to C-terminal residues of Streptococcus pyogenes Pol C (A2RGI3 1444-1465): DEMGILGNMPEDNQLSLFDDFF
Sequence of C-terminal peptide corresponding to Staphylococcus aureus Pol C (A6QGG4 1419-1438): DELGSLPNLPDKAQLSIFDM

C-terminal peptide corresponding to Staphylococcus aureus Pol C
Kd [1]: 5.9 µM
Kd [2]: 7.2 µM

Peptide corresponding to C-terminal residues of Streptococcus pyogenes Pol C
Kd [1]: 1.5 µM
Kd [3]: 2.5 µM
